First the molecules themselves.
B1: purified recombinant TKT (natural protein, human, UniProt P29401 1-623, looked up)
chain: MESYHKPDQQKLQALKDTANRLRISSIQATTAAGSGHPTSCCSAAEIMAVLFFHTMRYKSQDPRNPHNDRFVLSKGHAAPILYAVWAEAGFLAEAELLNLRKISSDLDGHPVPKQAFTDVATGSLGQGLGAACGMAYTGKYFDKASYRVYCLLGDGELSEGSVWEAMAFASIYKLDNLVAILDINRLGQSDPAPLQHQMDIYQKRCEAFGWHAIIVDGHSVEELCKAFGQAKHQPTAIIAKTFKGRGITGVEDKESWHGKPLPKNMAEQIIQEIYSQIQSKKKILATPPQEDAPSVDIANIRMPSLPSYKVGDKIATRKAYGQALAKLGHASDRIIALDGDTKNSTFSEIFKKEHPDRFIECYIAEQNMVSIAVGCATRNRTVPFCSTFAAFFTRAFDQIRMAAISESNINLCGSHCGVSIGEDGPSQMALEDLAMFRSVPTSTVFYPSDGVATEKAVELAANTKGICFIRTSRPENAIIYNNNEDFQVGQAKVVLKSKDDQVTVIGAGVTLHEALAAAELLKKEKINIRVLDPFTIKPLDRKLILDSARATKGRILTVEDHYYEGGIGEAVSSAVVGEPGITVTHLAVNRVPRSGKPAELLKMFGIDRDAIAQAVRGLITKA
notes: wild-type transketolase (TKT), human; in vector pSJ3; also called TKT homodimer; TKT-TKT; source: E. coli BL21 (DE3)pLysS, purified (nickel column)

Data set [1] concerns the molecule itself. Kind of data set: native gel or EMSA; native gel electrophoresis of TKT, TKTL1-TKT and TKTL1. In general terms: Mobility shift assays separate free from complexed probe on a gel.
Data set [2] concerns the molecule itself. The data set is described as follows: SPR; Biacore T200; TKT immobilised on a CM5 chip; constant of the TKT-TKT homodimer; the analyte series is not described.
The data set “SPR” deals with the molecule itself. Kind of data set: SPR. (In general: In SPR one partner is held on a chip, and binding of the other changes the refractive index at the surface.)
Data set [3] concerns the target B1. Kind of data set: SPR; Biacore T200; TKT amine-coupled to a CM5 chip in 10 mM sodium acetate pH 5.5; TKTL1 in a series of concentrations starting at 65.9 nM; PBS buffer. To be noted: both partners purified.
The target of data set [4] is T1, purified recombinant TKT (human, UniProt P29401 1-623).
T1 chain: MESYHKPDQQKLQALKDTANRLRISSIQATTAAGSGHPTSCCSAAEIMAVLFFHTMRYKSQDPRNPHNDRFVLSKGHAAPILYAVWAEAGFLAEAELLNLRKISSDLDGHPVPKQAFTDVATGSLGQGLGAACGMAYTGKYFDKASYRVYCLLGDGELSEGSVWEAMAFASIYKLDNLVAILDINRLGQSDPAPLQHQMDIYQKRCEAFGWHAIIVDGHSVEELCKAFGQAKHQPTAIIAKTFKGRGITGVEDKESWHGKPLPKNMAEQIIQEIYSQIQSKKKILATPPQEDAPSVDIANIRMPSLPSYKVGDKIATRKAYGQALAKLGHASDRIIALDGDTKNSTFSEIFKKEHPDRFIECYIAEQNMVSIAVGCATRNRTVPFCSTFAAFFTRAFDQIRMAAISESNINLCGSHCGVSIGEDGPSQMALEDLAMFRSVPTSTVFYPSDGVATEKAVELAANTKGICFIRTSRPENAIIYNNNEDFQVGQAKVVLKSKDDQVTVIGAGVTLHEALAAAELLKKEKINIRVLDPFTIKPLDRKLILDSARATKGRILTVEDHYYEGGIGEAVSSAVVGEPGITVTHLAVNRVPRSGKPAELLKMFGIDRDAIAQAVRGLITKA
Kind of data set: SPR.

Usually stoichiometry N stands for the number of molecules, sites or subunits per partner or assembly. By Kd is commonly meant the free concentration of one partner at which half of the binding sites on the other are occupied at equilibrium, for simple one-to-one binding. What is called koff is the first-order rate constant of dissociation. With B1, the “stoichiometry N” value in data set [1] turned out to be 2. In addition, the dissociation constant Kd in data set [2] is 118 nM. In “SPR”, the koff is 0.00777 s⁻¹.

B2: purified recombinant TKTL1 (natural protein, human, UniProt P51854 1-596, looked up)
chain: MADAEARAEFPEEARPDRGTLQVLQDMASRLRIHSIRATCSTSSGHPTSCSSSSEIMSVLFFYIMRYKQSDPENPDNDRFVLAKRLSFVDVATGWLGQGLGVACGMAYTGKYFDRASYRVFCLMSDGESSEGSVWEAMAFASYYSLDNLVAIFDVNRLGHSGALPAEHCINIYQRRCEAFGWNTYVVDGRDVEALCQVFWQASQVKHKPTAVVAKTFKGRGTPSIEDAESWHAKPMPRERADAIIKLIESQIQTSRNLDPQPPIEDSPEVNITDVRMTSPPDYRVGDKIATRKACGLALAKLGYANNRVVVLDGDTRYSTFSEIFNKEYPERFIECFMAEQNMVSVALGCASRGRTIAFASTFAAFLTRAFDHIRIGGLAESNINIIGSHCGVSVGDDGASQMALEDIAMFRTIPKCTIFYPTDAVSTEHAVALAANAKGMCFIRTTRPETMVIYTPQERFEIGQAKVLRHCVSDKVTVIGAGITVYEALAAADELSKQDIFIRVIDLFTIKPLDVATIVSSAKATEGRIITVEDHYPQGGIGEAVCAAVSMDPDIQVHSLAVSGVPQSGKSEELLDMYGISARHIIVAVKCMLLN
notes: wild-type transketolase-like protein 1 (TKTL1), human; in vector pSJ3; also called TKTL1 monomer; source: E. coli BL21 (DE3)pLysS, purified (nickel column)
Take B2: the Kd with purified recombinant TKT [3] stood at 146 nM. The koff with purified recombinant TKT [4] was 0.0044 s⁻¹.
